We go through 5 molecules from patent US20220281980A1 (Bristol-Myers Squibb, published 2022).

Residue numbers refer to the chain shown, from its start.

B1: MICA.2 (antibody, human IgG1, kappa, V domains shown)
VH: EVQLVESGGGLVQPGGSLRLSCAASGFTFSTYSMNWVRQAPGKGLEWVSYISYRSRTIYYADSVKGRFTISRDNARNSLYLQMNSLRDEDTAVYYCARWGYGSGGFDYWGQGTLVTVSS
VL: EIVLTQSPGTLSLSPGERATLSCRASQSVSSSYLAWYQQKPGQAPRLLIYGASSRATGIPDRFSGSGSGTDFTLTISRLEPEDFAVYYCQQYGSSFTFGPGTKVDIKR
notes: 3F5 variable regions on human IgG1f and human kappa constant regions, made in CHO-S cells; also called 3F5; recombinant antibody of 3F5
B2: 19G6 (antibody, V domains shown)
VH: QVQLVESGGGVVQPGRSLRLSCAASGFTFSNYAMHWVRQAPGEGLEWVALIWYDGSNKFYGDSVKGRFTISRDNSKNTLYLQMNSLSAEDTAVYYCAREGSGHYWGQGTLVTVSS
VL: AIQLTQSPSSLSASVGDRVTITCRASQGISSALAWYQQKPGKVPKSLIYDASSLESGVPSRFSGSGSGTDFTLTISSLQPEDFATYYCQQFNSYPITFGQGTRLEIK
notes: Hybridoma antibody from human IgG transgenic mice, parent of MICA.36; also called 19G6 mAb; hybridoma 19G6
B3: 71C2 (antibody, V domains shown)
VH: EVQLVESGGGLVQPGRSLRLSCAASGFTFNNYAMHWVRQAPGKGLEWVSGITWNSDSIGYADSVKGRFTISRDNAKNSLYLQMNSLRAEDTALYYCAKDSVLLWFGGMDVWGQGTTVTVSS
VL: not shown
notes: Hybridoma antibody
B4: 24G11 (antibody, V domains shown)
VH: EVQLVQSGAEVKKPGESLKISCKGSGYSFTNYWIGWVRQMPGKGLEWLGIIHPGDSYTRYSPSFQGQVTISADKSISTAYLQWSSLKASDTAIYYCAREGIAATPFDYWGQGTLVTVSS
VL: EIVLTQSPATLSLSPGERATLSCRASQSVSSYLAWFQQKPGQAPRLLIYDASNRATGIPARFSGSGSGTDFTLTISSLEPEDFAVYYCQQRSNWPPTFGQGTKVEIK
notes: also called MICA.54; 24G11 (MICA.54)
B5: MICA.36 (antibody, V domains shown)
VH: B2 VH
VL: B2 VL
notes: it says that the name implies no specific constant region; Radioiodinated in the Scatchard assay; also called MICA.36 antibody

The target in the first assay is T1, recombinant soluble human MICA*004 antigen (human, UniProt Q29983 24-307).
T1 construct: also called huIMICA-his allele *004
T1 chain: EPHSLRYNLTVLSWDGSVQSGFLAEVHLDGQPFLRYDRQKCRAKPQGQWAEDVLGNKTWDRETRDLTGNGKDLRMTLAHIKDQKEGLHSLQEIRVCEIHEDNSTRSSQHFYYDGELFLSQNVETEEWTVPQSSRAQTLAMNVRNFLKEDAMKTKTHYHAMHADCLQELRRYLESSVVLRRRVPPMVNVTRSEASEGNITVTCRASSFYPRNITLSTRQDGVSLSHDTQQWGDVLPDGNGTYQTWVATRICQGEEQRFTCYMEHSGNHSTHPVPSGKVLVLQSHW
The assay can be described thus: SPR (Biacore 3000), antibody captured on Protein G chip, huMICA-his analyte. The method, then: (§1) Kinetics and affinity of anti-MICA/B antibodies MICA.2, 19G6, 16A5, and 71C2 towards human MICA alleles (huIMICA-his allele *002, *004, *008, and *009) were also determined on a BIACORE 3000® instrument using the following conditions: [0571] Running Buffer: HES-EP running buffer [0572] Chip: CM5 Protein G Chip Fc1: Blank. Fc2-4: ˜200Rus [0573] Ab: 5 ug/mL, 10 uL @ 10 uL/min [0574] Ag binding: 5 min association, 7 min dissociation @ 25 uL/min, [0575] Regeneration: Glycine 1.7, 10 uL @ 100 uL/min followed by 60s wash by HES-EP
B1: the Kd is 54.6 nM.
As to B2, the Kd came out at 9.78 nM.
Take B3: the dissociation constant (Kd) stood at 262 nM.

Another assay deals with T2, recombinant soluble human MICA*009 antigen (human, UniProt Q29983 24-307).
T2 construct: also called huIMICA-his allele *009
T2 chain: T1 chain with V122L, R181T, S215T, T216W
Described as above. The method, then: as §1
As to B1, the Kd is 61.5 nM.
Same read-out and setting: under B2 stands 13.7 nM; under B3, 1400 nM.

The next assay addresses T3, recombinant soluble human MICA*008 antigen (human, UniProt Q29983 24-307).
T3 construct: also called huIMICA-his allele *008; recombinant soluble MICA (allele 8)
T3 chain: T1 chain with V122L, S175G, R181T, T213I, S215T, T216W, Q251R
The assay is described as above. On the procedure: as §1
Regarding B1, the Kd is 40.5 nM.
Same read-out and setting: under B2 stands 5.23 nM; under B3, 39.9 nM.

The target in a further assay is T4, recombinant soluble human MICA*002 antigen (human, UniProt Q29983 24-307).
T4 construct: also called huIMICA-his allele *002
T4 chain: T1 chain with W14G, Y36C, V122L, V129M, E173K, S175G, R181T, S206G, R210W, T216W
The assay is described as above. On the procedure: as §1
As to B1, the Kd stood at 27.5 nM.
With B2, the Kd was 219 nM.
Still for that read-out and setting: under B3 stands 3010 nM.

The target in a further assay is T3, recombinant soluble human MICA*008 …. Kind of assay: BLI (Octet) sandwich binning on soluble MICA allele 8, row antibody captured; competitor (second antibody): MICA.38. The method, then: The binning experiments were performed on an Octet HTX instrument at 25° C. in HEPES buffered saline (10 mM HEPES pH 7.4, 150 mM NaCl, 0.05% v/v surfactant P20, and 1 mg/mL BSA). Anti-MICA/B antibodies and NKG2D-mFc were captured on anti-Fc tips and remaining capture sites were blocked with an excess of negative control IgG. Recombinant soluble MICA (allele 8) was bound and subsequent binding (“sandwiching”) of anti-MICA/B antibodies was tested.
B4: the “simultaneous binding (0 = no, 1 = yes)” value turned out to be 1.
As to B1, the “simultaneous binding (0 = no, 1 = yes)” value turned out to be 0.
B5: the “simultaneous binding (0 = no, 1 = yes)” value was 1.

The next assay has as its target T5, human MICA/B endogenously expressed on RPMI-8226 cells (human, UniProt Q29983 24-383).
T5 construct: whole, on cells
T5 sequence (looked up): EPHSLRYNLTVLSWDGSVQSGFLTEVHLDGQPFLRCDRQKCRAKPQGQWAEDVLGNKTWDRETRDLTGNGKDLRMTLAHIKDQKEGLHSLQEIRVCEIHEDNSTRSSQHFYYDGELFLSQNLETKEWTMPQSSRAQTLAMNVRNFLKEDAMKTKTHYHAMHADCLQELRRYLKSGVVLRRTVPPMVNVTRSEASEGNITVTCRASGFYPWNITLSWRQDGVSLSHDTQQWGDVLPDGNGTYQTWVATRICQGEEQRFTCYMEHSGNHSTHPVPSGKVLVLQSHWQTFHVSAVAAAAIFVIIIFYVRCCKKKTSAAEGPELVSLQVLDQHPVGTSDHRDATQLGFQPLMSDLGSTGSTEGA
Kind of assay: flow cytometry, tumor cells with endogenous MICA/B.
B4 had a concentration giving a half-maximal response (EC50) of 104 nM.
Still for that read-out and setting: the value for B1 was 41.9 nM; that for B2 was 3.89 nM; that for B3 was 36.9 nM.

In another assay the target is T6, human MICA/B endogenously expressed on 786-O cells (MICA allele *008) (human, UniProt Q29983 24-331).
T6 construct: it speaks of MICA/B, so MICB may be present as well; also called 786-0
T6 chain: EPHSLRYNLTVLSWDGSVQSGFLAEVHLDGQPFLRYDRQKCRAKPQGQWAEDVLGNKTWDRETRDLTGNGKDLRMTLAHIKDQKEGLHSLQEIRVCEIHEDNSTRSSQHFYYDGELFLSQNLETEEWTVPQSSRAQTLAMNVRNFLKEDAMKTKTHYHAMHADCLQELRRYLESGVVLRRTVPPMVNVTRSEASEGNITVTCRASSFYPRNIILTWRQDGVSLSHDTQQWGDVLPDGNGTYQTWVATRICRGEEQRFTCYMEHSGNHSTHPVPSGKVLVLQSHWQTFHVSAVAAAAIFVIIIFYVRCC
Kind of assay: flow cytometry, tumor cells with endogenous MICA/B.
The molecule B4 returned an EC50 of 147 nM. That is a sub-micromolar value.
Turning to B1, the EC50 was 4.95 nM.
Turning to B2, the EC50 turned out to be 1.37 nM.
Same read-out and setting: the value for B3 was 13.8 nM.
